{"source": "paper PMC8764033", "about": "“Single-molecule analysis of specificity and multivalency in binding of short linear substrate motifs to the APC/C” (Nature Communications, 2022)", "key": {"[1]": {"system": "APC/C^Apc10-4A, Cdc20", "sequence (P26309 whole entry)": "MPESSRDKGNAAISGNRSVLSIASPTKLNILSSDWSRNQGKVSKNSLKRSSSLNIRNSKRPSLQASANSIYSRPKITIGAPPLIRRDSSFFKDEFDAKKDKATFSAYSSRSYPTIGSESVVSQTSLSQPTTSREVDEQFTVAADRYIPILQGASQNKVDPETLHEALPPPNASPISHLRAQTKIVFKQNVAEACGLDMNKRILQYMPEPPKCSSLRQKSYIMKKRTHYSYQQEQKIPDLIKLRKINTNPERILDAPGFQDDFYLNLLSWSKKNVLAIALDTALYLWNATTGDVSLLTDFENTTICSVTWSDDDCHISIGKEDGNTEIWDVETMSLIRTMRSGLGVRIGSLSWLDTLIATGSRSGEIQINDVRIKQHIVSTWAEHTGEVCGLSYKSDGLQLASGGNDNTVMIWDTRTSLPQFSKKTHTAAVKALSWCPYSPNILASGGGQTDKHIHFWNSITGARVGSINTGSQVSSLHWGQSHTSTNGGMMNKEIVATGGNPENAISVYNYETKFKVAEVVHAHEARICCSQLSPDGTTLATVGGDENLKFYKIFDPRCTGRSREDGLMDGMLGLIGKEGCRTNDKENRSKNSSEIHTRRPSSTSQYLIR", "experiment": "SMOR assay, yeast APC/C^Apc10-4A, Cdc20", "assay_type": "binding, Saccharomyces cerevisiae", "procedure": "(§1) Yeast strains were derivatives of W303 and are listed in Supplementary Table 2. For APC/C purification, we used a strain carrying Cdc16-TAP and lacking Cdh1 (DOM1126); in most experiments, the strain also carried Apc1-GFP (NHY13). Yeast were grown in YPD media to OD600 = 0.8, collected and flash-frozen. Cells were lysed by bead beating in lysis buffer A (50 mM HEPES pH 7.5, 150 mM KCl, 10% glycerol, 0.2% Triton X-100, 63 µM B-glycerophosphate, 48 µM sodium fluoride, 1 µg ml^−1 pepstatin A, 1 µg ml^−1 leupeptin, 1 µg ml^−1 aprotinin, 1 mM PMSF, 1 mM DTT, 0.5 mM EDTA) and APC/C was purified using magnetic IgG beads. The beads were washed using wash buffer A (20 mM HEPES pH 7.5, 150 mM KCl, 10% Glycerol, 0.05% Triton X-100). After incubation with purified Cdh1 or Cdc20, the APC/C was cleaved off the beads with TEV protease in wash buffer A with 0.05% Tween-20 (for single-molecule studies) or 0.05% Triton X-100 (for ensemble assays such as ubiquitylation) and used immediately.\n(§2) For all SMOR experiments, 24 × 50 mm high precision glass coverslips (Bioscience Tools) and drilled microscope slides were passivated with a combination of PEG and PEG-biotin (coverslips) or PEG only (slides) following a previously published protocol for SiMPull[31]. Reaction chambers (~20 µl) were created using double-sided tape and epoxy. Protein was immobilized on the surface with 0.2 mg ml^−1 NeutrAvidin in buffer C (20 mM HEPES pH 7.5, 150 mM KCl, 10% glycerol, 0.05% Tween-20, 1 mM DTT). Excess NeutrAvidin was washed away and incubated with either biotin-conjugated mouse monoclonal anti-Strep-Tag II antibody (LSBio, Cat. No. LS-C203632-100) or biotin-conjugated rabbit polyclonal anti-GFP antibody (Rockland, Cat. No. 600-406-215) diluted in buffer C + BSA (0.1 mg ml^−1; Molecular Biology Grade Bovine Serum Albumin). Activator WD40 and activated APC/C (typically 50 µl containing about 65 ng APC/C, of which only a small fraction is immobilized on the glass) were immobilized using anti-Strep-Tag II, while APC/C alone was immobilized with anti-GFP. SMOR results were similar when performed in the buffer (wash buffer B) used in polarization anisotropy.\n(§3) To capture dynamic protein–protein interactions, dye-labeled substrate diluted in buffer C + BSA was added to the chamber containing immobilized proteins. Interactions were imaged by TIRF microscopy as described below. For optimal signal-to-noise ratio, peptide concentration was no greater than 1 nM. […]\n(§4) Microscopy was performed with a Nikon Eclipse TE2000-E with Perfect Focus with a 100 × 1.49na oil, Apo TIRF DIC N2, 0.13-0.2, WD0.12 objective. Movies were recorded using the Andor iXon DU-897E-CSO. […]"}, "[2]": {"system": "APC/C^Cdh1", "experiment": "Ensemble binding of radiolabeled Hsl1 fragments to APC/C^Cdh1 on magnetic beads", "set-up": "species or system yeast", "text": "Supplementary Fig. 2: APC/C activity with tagged substrates a, Methods for analysis of APC/C activity and substrate binding. b, APC/C ubiquitylation assay with ra d io lab e le d f u ll-len g th yS e cu rin , co mpa rin g wild-type APC/CCdh1 an d AP C/ CCdh1 with a GFP ta g o n A p c1 . c, Comparison of activities with APC/CCdh1, using either wild-type Cdh1 or Cdh1 with the N-terminal 2XStrep-Tag II. d, Comparison of activities with APC/CCdh1 and the Hsl1 fragment (667-872) with and without the C-terminal Halo tag. e, Binding of radiolabeled Hsl1 fragments to yeast APC/CCdh1 immobilized on magnetic beads. First lane (Inp, input) indicates the amount of labeled protein added to the beads prior to washing, second lane (+) indicates amount bound, and third lane (-) indicates background binding in absence of APC/CCdh1. f, Ubiquitylation of Halo-tagged Hsl1 fragment with APC/CCdh1 an d A P C/ CCdc20. Experiments we re pe rfo rme d o n ce (b, c) or twice ( d-f). Source data are provided as a Source Dat a file.\n(1 picture or pasted object on this page, not shown here)"}, "[3]": {"system": "APC/C^Apc10-4A, Cdh1", "sequence (P53197 whole entry)": "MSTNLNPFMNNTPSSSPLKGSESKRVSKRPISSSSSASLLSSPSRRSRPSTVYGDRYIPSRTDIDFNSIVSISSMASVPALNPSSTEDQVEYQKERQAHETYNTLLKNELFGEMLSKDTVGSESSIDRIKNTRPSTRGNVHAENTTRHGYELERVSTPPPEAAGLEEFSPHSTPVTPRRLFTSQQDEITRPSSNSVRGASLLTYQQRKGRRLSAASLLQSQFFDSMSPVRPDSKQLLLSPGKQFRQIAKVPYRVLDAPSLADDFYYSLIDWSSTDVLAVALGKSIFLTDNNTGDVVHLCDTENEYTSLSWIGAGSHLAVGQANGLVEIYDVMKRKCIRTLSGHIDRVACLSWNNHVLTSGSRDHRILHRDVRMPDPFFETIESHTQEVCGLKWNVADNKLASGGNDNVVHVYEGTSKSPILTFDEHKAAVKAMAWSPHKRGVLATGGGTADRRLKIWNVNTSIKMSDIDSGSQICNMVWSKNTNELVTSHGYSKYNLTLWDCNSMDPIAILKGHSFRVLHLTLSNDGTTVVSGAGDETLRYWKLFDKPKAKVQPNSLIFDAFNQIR", "experiment": "SMOR assay, yeast APC/C^Apc10-4A, Cdh1", "assay_type": "binding, Saccharomyces cerevisiae", "procedure": "as §1, §2, §3, §4"}, "[4]": {"details": "Supplementary Table 1, replicate 1 (movie listed first)"}, "[5]": {"details": "Supplementary Table 1, replicate 2 (movie listed second)"}, "[6]": {"details": "representative of two independent experiments, ± SE, ligand ≤1 nM, buffer C + BSA"}}, "note": "Several values for one entry are separate records, joined by “and”; a condition that tells them apart may be missing. Identical values can stand only once. Entries after “also recorded” stand apart in the source; their conditions may differ.", "data": [{"molecule": "Hsl1^Halo KEN & D: Hsl1 fragment (amino acids 667–872) with C-terminal HaloTag, JF549-labeled (protein, JF549 or JF646 dye covalently bound to the HaloTag; left off: HaloTag, C-terminal, kept | TAP, C-terminal, cleaved, Hsl1 fragment (amino acids 667–872) with C-terminal HaloTag, JF549-labeled) QNSASKRSLYSLQSISKRSLNLNDLLVFDDPLPSKKPASENVNKSEPHSLESDSDFEILCDQILFGNALDRILEEEEDNEKERDTQRQRQNDTKSSADTFTISGVSTNKENEGPEYPTKIEKNQFNMSYKPSENMSGLSSFPIFEKENTLSSSYLEEQKPKRAALSDITNSFNKMNKQEGMRIEKKIQREQLQKKNDRPSPLKPIQ", "values": [{"measurement": "binding (in words)", "setting": "[1]", "result": "the Apc10-4A mutations only slightly reduced Hsl1 dwell time with APC/C^Cdc20; also recorded: only slightly reduced by mutation of Apc10"}, {"measurement": "Dwell Time", "setting": "[1]; [4]", "result": "0.449 ± 0.014", "unit": "s"}, {"measurement": "Dwell Time", "setting": "[1]; [5]", "result": "0.372 ± 0.027", "unit": "s"}, {"measurement": "mean dwell time", "setting": "[1]; [6]", "result": 0.449, "unit": "s"}, {"measurement": "binding to APC/C (in words)", "setting": "[2]", "result": "HaloTag does not affect ubiquitylation or binding"}, {"measurement": "binding (in words)", "setting": "[3]", "result": "This boost in affinity was not seen in the Apc10-4A mutant"}, {"measurement": "Dwell Time", "setting": "[3]; [4]", "result": "42.881 ± 2.489", "unit": "s"}, {"measurement": "Dwell Time", "setting": "[3]; [5]", "result": "75.919 ± 3.159", "unit": "s"}, {"measurement": "mean dwell time", "setting": "[3]; [6]", "result": "75.9 ± 3 s and 75.9 s"}]}]}
